The record followed here is publication PMC10816834, “Role of the C-Terminal β Sandwich of Thermoanaerobacter tengcongensis Thermophilic Esterase in Hydrolysis of Long-Chain Acyl Substrates” (International Journal of Molecular Sciences, 2024).

What is called Km is the substrate concentration at which the rate is half of its maximum.

Conditions in all cases: 50 °C, 50 mM sodium phosphate pH 7.4 (also Tris-HCl pH 8.5), 5 μM enzyme, 1-20 mM substrate
Data set [1] relates to T1, EstA3_Bb (naturally shorter B. brevis esterase).
T1 construct: gene EstA3.bb; full-length natural enzyme lacking the C-terminal tail, 6xHis-tag (pET28a, plasmid pFEM170), codon-optimised synthetic gene, E. coli BL21(DE3) pLysS, Ni-NTA; calculated mass 35,243
The experiment in a line: p-nitrophenol release at […] nm, Lineweaver-Burk. The data set is classed as biochemical, Brevibacillus brevis.

Substrate in data set [2]: CCCC(=O)Oc1ccc([N+](=O)[O-])cc1
Description: purified protein. The data set is classed as biochemical, Caldanaerobacter subterraneus.

Substrate in data set [3]: CCCCCCCC(=O)Oc1ccc([N+](=O)[O-])cc1
Description: purified protein. The data set is classed as biochemical, Caldanaerobacter subterraneus.

For `CCCCCCCC(=O)Oc1ccc([N+](=O)[O-])cc1` [pNPC8, p-nitrophenyl caprylate], in data set [1], the Km came out at 510 µM.
With `CCCC(=O)Oc1ccc([N+](=O)[O-])cc1` [pNPC4, p-nitrophenyl butyrate], the Km in data set [1] (table value, text b31 prints 0.53 mM) was found to be 590 µM.

B1: EstA3_Tt (wild-type T. tengcongensis esterase EstA3, LipA3) (Caldanaerobacter subterraneus subsp. tengcongensis MB4) (protein)
chain: MNNPVVFLHGIFGSIFTPTPLGKIWSFGPAANIYAPFIEDLQKIGLVENKNLFVCYYEWWRKIPDAVDKLILAIEEAKAKTGSSKVDLVCHSMGGLLARSYLQSDKYQFDVDKLILLGTPNLGAANAYYGWEGGTVPPDDEDFVNMLFRGFLWIFSKIKGEKDAVTVIRKYIPSIKDLMPSKEYGSYLFMYPVRYEKILFKNIEYMKVINDFLNDLNEKADILYERVRSVYLFAGEGVYTNKFIQVEKSESEVVWPDGKPVGVIRDDKGDGTVLTKSALGINGEEIVLKSSHIGILKDSVSYLGEILGIREKPSISLLEKAISYLSIITDKKIVVLDRSKKIKTYDVFGKYNWHVCFEPEGVYKISIKEPGMSEFYIETNKKTVEKKFKSSRLSRGAEFTLEVDEEGNFKMRDG
notes: full length, 6xHis-tag (pET28a, plasmid pFEM45), codon-optimised synthetic gene, E. coli BL21(DE3) pLysS, Ni-NTA; calculated mass 47,078
As to B1, the Km in the data set “purified protein [2]” turned out to be 530 µM; in “purified protein [3]” (listed as label shifted in table, assigned by text b31), 490 µM.

B2: EstA3_TtΔ (truncated T. tengcongensis esterase) (Caldanaerobacter subterraneus subsp. tengcongensis MB4) (protein)
chain: MNNPVVFLHGIFGSIFTPTPLGKIWSFGPAANIYAPFIEDLQKIGLVENKNLFVCYYEWWRKIPDAVDKLILAIEEAKAKTGSSKVDLVCHSMGGLLARSYLQSDKYQFDVDKLILLGTPNLGAANAYYGWEGGTVPPDDEDFVNMLFRGFLWIFSKIKGEKDAVTVIRKYIPSIKDLMPSKEYGSYLFMYPVRYEKILFKNIEYMKVINDFLNDLNEKADILYERVRSVYLFAGEGVYTNKFIQVEKSESEVVWPDGKPVGVIRDDKGDGTVLTKSALGINGEEIVLKSSHIGILKDSVSYLGEILG
notes: catalytic domain; 6xHis-tag (pET28a, plasmid pFEM103), E. coli BL21(DE3) pLysS, Ni-NTA; calculated mass 34,719
Take B2: the values for the Km in the data set “purified protein [2]” and in the data set “purified protein [3]” were 640 µM and 560 µM, respectively.
